Measured values as given in PMC2185068.

Target: Myc-nectin-1-CP (aa 379–518) (human)
Assay: pull-down

B1: GST-l-afadin-PDZ (aa 1007–1125) (domain or fragment)
chain: PLRKEPEVITVTLKKQNGMGLSIVAAKGAGQDKLGIYVKSVVKGGAADVDGRLAAGDQLLSVDGRSLVGLSQERAAELMTRTSSVVTLEVAKQGAIYHGLATLLNQPSPMMQRISDRRG
B1 showed a stoichiometry N of 1.
